Results as given in publication PMC8244865, “Recruitment of phospholipase Cγ1 to the non-structural membrane protein pK15 of Kaposi Sarcoma-associated herpesvirus promotes its Src-dependent phosphorylation” (PLoS Pathogens, 2021).

System: full length PLCγ1 R586L+R694L
Experiment: GST-pulldown, full-length PLCγ1 double mutant
Details: phosphorylated; binding eliminated for SA domain but not full length
Protocol: Fig 3 Contribution of individual PLCγ1 SH2 domains to the interaction with phosphorylated pK15. The pK15 CT fused to GST, its Y^481F mutant, or GST alone were bound to glutathione beads, phosphorylated in vitro (+) or left unphosphorylated (-), and a GST pulldown was performed 32h after transfection into HEK-293T cells of expression vectors for S-tagged full-length PLCγ1 (FL) (A) or PLCγ1 SA (B) containing the indicated mutations. (C) pK15 CT WT, its Y^481F mutant or GST were bound to glutathione beads, phosphorylated in vitro (+) or left unphosphorylated (-), and used for a GST pulldown assay 32h after transfecting HEK 293T cells with expression vectors for S-tagged individual PLCγ1 nSH2 or cSH2 domains. […]
HEK293T cells were washed once with cold PBS 30 hours after transfection, lysed in IP buffer (50 mM Tris pH7.6, 60 mM NaCl, 6.25 mM EDTA, 1% (v/v) glycerol, 0.04% (v/v) NP-40) on ice for 30 minutes, sonicated shortly and cleared by centrifugation for 10 minutes at 20.000g, 4°C. […] Beads were then washed 5 times in 500 μl IP buffer (or for purified proteins IP buffer with 200 mM NaCl), suspended in 10 μl of 5x Laemmli sample buffer (60 mM Tris pH6.8, 24% (v/v) glycerol, 2% (v/v) SDS, 5% (v/v) β-mercaptoethanol, 0.01% Bromphenol Blue) and analysed by western blot.

B1: pK15 CT^WT: pK15 cytoplasmic tail fused to GST at its N-terminal end, phosphorylated in vitro by Src (protein)
chain: SQLLNEVELQEVNRDPPNVFGYASILVSGAEESREPSPQPDQSGMSILRVDGGSAFRIDTAQAATQPTDDLYEEVLFPRN
modifications: tyrosine-phosphorylated in vitro by Src; sites not stated for this construct; left off: GST, N-terminal, kept
Q: B1 was tested. Which “binding of double mutant (GST-pulldown)” value did it give?
A: not to full length PLCγ1
